Results taken from article PMC4151172.

Target: HLA-DR1 (HLA-DRB1*01:01), soluble recombinant MHCII (human)
Assay: fluorescence polarisation

## HA(306-318), unlabeled influenza hemagglutinin peptide
  IC50: 0.025 µM
